Some targets named below: RSKL-pY423; EGFR-pY978; VEGFR1-pY1213mod; EGFR-pY1110; MidT-pY324; TRAF7-pY275mod; SIG11-pY668.
Holding throughout (assay): fluorescence polarization
(In general: In fluorescence polarisation assays a small probe gives low polarisation when free and higher when bound to something large.)

B1: S10A (designed binder)
chain: MKIEEHHHHHHSSGRENLYFQGGAAQPAAPVDSIQAEEWYFGKLGRKDAERQLLSFGNPRGTFLIRESETTKGAYALSIRDWDDMKGDHVKHYKIRKLDNGGYYITTRAQFETLQQLVQHYSERAAGLSSRLVVPSHKGAAA
Broadly, the Kd is the free concentration of one partner at which half of the binding sites on the other are occupied at equilibrium, for simple one-to-one binding. Lower therefore signals higher affinity. Consider B1, for which the Kd came to 2500 nM with RSKL-pY423; 1100 nM with EGFR-pY978; 5800 nM with VEGFR1-pY1213mod; 13000 nM in the assay with EGFR-pY1110; 120 nM with MidT-pY324; 1300 nM in the assay with TRAF7-pY275mod. The Kd with SIG11-pY668 was 48 nM.

B2: T8I S10A K15L (designed binder)
chain: MKIEEHHHHHHSSGRENLYFQGGAAQPAAPVDSIQAEEWYFGKLGRKDAERQLLSFGNPRGTFLIRESETIKGAYALSIRDWDDMKGDHVKHYLIRKLDNGGYYITTRAQFETLQQLVQHYSERAAGLSSRLVVPSHKGAAA
Regarding B2, the Kd with RSKL-pY423 turned out to be 190 nM; with EGFR-pY978 it was 32 nM; with VEGFR1-pY1213mod, 180 nM; with EGFR-pY1110 it was 700 nM; in the assay with MidT-pY324 it was 43 nM; with TRAF7-pY275mod, 330 nM. In the assay with SIG11-pY668, this molecule showed a dissociation constant Kd of 120 nM.

B3: none (wild-type) (other)
chain: MKIEEHHHHHHSSGRENLYFQGGAAQPAAPVDSIQAEEWYFGKLGRKDAERQLLSFGNPRGTFLIRESETTKGAYSLSIRDWDDMKGDHVKHYKIRKLDNGGYYITTRAQFETLQQLVQHYSERAAGLSSRLVVPSHKGAAA
Turning to B3, the Kd in the assay with RSKL-pY423 amounted to 12000 nM; in the assay with EGFR-pY1110, 26000 nM; in the assay with MidT-pY324, 490 nM; with TRAF7-pY275mod it was 6000 nM; with SIG11-pY668 it was 430 nM.

B4: S10V K15L (designed binder)
chain: MKIEEHHHHHHSSGRENLYFQGGAAQPAAPVDSIQAEEWYFGKLGRKDAERQLLSFGNPRGTFLIRESETTKGAYVLSIRDWDDMKGDHVKHYLIRKLDNGGYYITTRAQFETLQQLVQHYSERAAGLSSRLVVPSHKGAAA
For B4, the Kd with RSKL-pY423 was determined as 1500 nM; with EGFR-pY978, 430 nM; with VEGFR1-pY1213mod it was 1600 nM; with EGFR-pY1110, 4400 nM; with MidT-pY324, 94 nM; in the assay with TRAF7-pY275mod, 2100 nM. In addition, the Kd with SIG11-pY668 is 320 nM.

B5: T8V (designed binder)
chain: MKIEEHHHHHHSSGRENLYFQGGAAQPAAPVDSIQAEEWYFGKLGRKDAERQLLSFGNPRGTFLIRESETVKGAYSLSIRDWDDMKGDHVKHYKIRKLDNGGYYITTRAQFETLQQLVQHYSERAAGLSSRLVVPSHKGAAA
On to B5, for which the Kd amounted to 14000 nM with RSKL-pY423; 2400 nM with EGFR-pY978; 24000 nM with VEGFR1-pY1213mod; 41000 nM in the assay with EGFR-pY1110; 370 nM in the assay with MidT-pY324; 5800 nM in the assay with TRAF7-pY275mod. In the assay with SIG11-pY668, the dissociation constant (Kd) stood at 1200 nM.

B6: S10A K15L (designed binder)
chain: MKIEEHHHHHHSSGRENLYFQGGAAQPAAPVDSIQAEEWYFGKLGRKDAERQLLSFGNPRGTFLIRESETTKGAYALSIRDWDDMKGDHVKHYLIRKLDNGGYYITTRAQFETLQQLVQHYSERAAGLSSRLVVPSHKGAAA
B6: the dissociation constant Kd with RSKL-pY423 stood at 1600 nM; with EGFR-pY978 it was 130 nM; with VEGFR1-pY1213mod it was 400 nM; with EGFR-pY1110, 2000 nM; in the assay with MidT-pY324, 110 nM; with TRAF7-pY275mod, 480 nM. This molecule also displayed a Kd with SIG11-pY668 of 120 nM.

B7: T8V K15L (designed binder)
chain: MKIEEHHHHHHSSGRENLYFQGGAAQPAAPVDSIQAEEWYFGKLGRKDAERQLLSFGNPRGTFLIRESETVKGAYSLSIRDWDDMKGDHVKHYLIRKLDNGGYYITTRAQFETLQQLVQHYSERAAGLSSRLVVPSHKGAAA
Consider B7, for which the Kd in the assay with RSKL-pY423 turned out to be 530 nM; with EGFR-pY978, 120 nM; with VEGFR1-pY1213mod it was 440 nM; with EGFR-pY1110, 1700 nM; in the assay with MidT-pY324, 140 nM; in the assay with TRAF7-pY275mod, 450 nM. Besides, in the assay with SIG11-pY668, the Kd was determined as 150 nM.

B8: T8V S10A K15I (designed binder)
chain: MKIEEHHHHHHSSGRENLYFQGGAAQPAAPVDSIQAEEWYFGKLGRKDAERQLLSFGNPRGTFLIRESETVKGAYALSIRDWDDMKGDHVKHYIIRKLDNGGYYITTRAQFETLQQLVQHYSERAAGLSSRLVVPSHKGAAA
B8: the Kd with RSKL-pY423 is 880 nM; in the assay with EGFR-pY978, 130 nM; with VEGFR1-pY1213mod, 410 nM; with EGFR-pY1110 it was 1400 nM; in the assay with MidT-pY324 it was 98 nM; with TRAF7-pY275mod it was 450 nM. The molecule also gave a Kd in the assay with SIG11-pY668 of 190 nM.

B9: T7S S10A K15L (designed binder)
chain: MKIEEHHHHHHSSGRENLYFQGGAAQPAAPVDSIQAEEWYFGKLGRKDAERQLLSFGNPRGTFLIRESESTKGAYALSIRDWDDMKGDHVKHYLIRKLDNGGYYITTRAQFETLQQLVQHYSERAAGLSSRLVVPSHKGAAA
With B9, the dissociation constant (Kd) with RSKL-pY423 was determined as 1500 nM; in the assay with EGFR-pY978 it was 210 nM; with VEGFR1-pY1213mod it was 640 nM; with EGFR-pY1110, 1600 nM; in the assay with MidT-pY324 it was 49 nM; in the assay with TRAF7-pY275mod it was 300 nM. For the same molecule, in the assay with SIG11-pY668, the affinity, expressed as Kd, was 71 nM.

B10: S10V (designed binder)
chain: MKIEEHHHHHHSSGRENLYFQGGAAQPAAPVDSIQAEEWYFGKLGRKDAERQLLSFGNPRGTFLIRESETTKGAYVLSIRDWDDMKGDHVKHYKIRKLDNGGYYITTRAQFETLQQLVQHYSERAAGLSSRLVVPSHKGAAA
Take B10: the Kd with RSKL-pY423 amounted to 6500 nM; with EGFR-pY978 it was 5500 nM; in the assay with VEGFR1-pY1213mod, 9000 nM; with EGFR-pY1110 it was 34000 nM; in the assay with MidT-pY324, 360 nM; with TRAF7-pY275mod, 4500 nM. In the assay with SIG11-pY668, binding was characterised by a dissociation constant (Kd) of 660 nM.

B11: K2E T8V S10A K15I (designed binder)
chain: MKIEEHHHHHHSSGRENLYFQGGAAQPAAPVDSIQAEEWYFGKLGREDAERQLLSFGNPRGTFLIRESETVKGAYALSIRDWDDMKGDHVKHYIIRKLDNGGYYITTRAQFETLQQLVQHYSERAAGLSSRLVVPSHKGAAA
B11: the Kd with RSKL-pY423 is 2500 nM; in the assay with EGFR-pY978, 170 nM; with VEGFR1-pY1213mod, 580 nM; with EGFR-pY1110 it was 3800 nM; with MidT-pY324 it was 280 nM; in the assay with TRAF7-pY275mod, 990 nM. For the same molecule, in the assay with SIG11-pY668, the Kd is 900 nM.

B12: ΔT8 S10A K15L (designed binder)
chain: MKIEEHHHHHHSSGRENLYFQGGAAQPAAPVDSIQAEEWYFGKLGRKDAERQLLSFGNPRGTFLIRESETTKGAYSLSIRDWDDMKGDHVKHYKIRKLDNGGYYITTRAQFETLQQLVQHYSERAAGLSSRLVVPSHKGAAA
Take B12: the Kd is 6100 nM with RSKL-pY423; 15000 nM in the assay with EGFR-pY1110; 260 nM in the assay with MidT-pY324; 2700 nM with TRAF7-pY275mod; 550 nM with SIG11-pY668.

B13: T8V S10A K15L (designed binder)
chain: MKIEEHHHHHHSSGRENLYFQGGAAQPAAPVDSIQAEEWYFGKLGRKDAERQLLSFGNPRGTFLIRESETVKGAYALSIRDWDDMKGDHVKHYLIRKLDNGGYYITTRAQFETLQQLVQHYSERAAGLSSRLVVPSHKGAAA
With B13, the Kd with RSKL-pY423 came to 77 nM; with EGFR-pY978, 8.5 nM; with VEGFR1-pY1213mod it was 58 nM; with EGFR-pY1110 it was 340 nM; with MidT-pY324 it was 11 nM; with TRAF7-pY275mod it was 60 nM. In the assay with SIG11-pY668, the affinity, expressed as Kd, was 26 nM.

B14: K15L (designed binder)
chain: MKIEEHHHHHHSSGRENLYFQGGAAQPAAPVDSIQAEEWYFGKLGRKDAERQLLSFGNPRGTFLIRESETTKGAYSLSIRDWDDMKGDHVKHYLIRKLDNGGYYITTRAQFETLQQLVQHYSERAAGLSSRLVVPSHKGAAA
Consider B14, for which the Kd in the assay with RSKL-pY423 worked out at 3300 nM; with EGFR-pY978 it was 670 nM; with VEGFR1-pY1213mod it was 2800 nM; with EGFR-pY1110, 5800 nM; with MidT-pY324, 420 nM; with TRAF7-pY275mod it was 2200 nM. Moreover, binding with SIG11-pY668 was put at a Kd of 450 nM.
